Results from publication doi:10.1101/2020.09.06.285171.

B1: mCherry-USH1C (harmonin/Usher syndrome 1C) (natural protein)
chain: MDRKVAREFRHKVDFLIENDAEKDYLYDVLRMYHQTMDVAVLVGDLKLVINEPSRLPLFDAIRPLIPLKHQVEYDQLTPRRSRKLKEVRLDRLHPEGLGLSVRGGLEFGCGLFISHLIKGGQADSVGLQVGDEIVRINGYSISSCTHEEVINLIRTKKTVSIKVRHIGLIPVKSSPDEPLTWQYVDQFVSESGGVRGSLGSPGNRENKEKKVFISLVGSRGLGCSISSGPIQKPGIFISHVKPGSLSAEVGLEIGDQIVEVNGVDFSNLDHKEAVNVLKSSRSLTISIVAAAGRELFMTDRERLAEARQRELQRQELLMQKRLAMESNKILQEQQEMERQRRKEIAQKAAEENERYRKEMEQIVEEEEKFKKQWEEDWGSKEQLLLPKTITAEVHPVPLRKPKYDQGVEPELEPADDLDGGTEEQGEQDFRKYEEGFDPYSMFTPEQIMGKDVRLLRIKKEGSLDLALEGGVDSPIGKVVVSAVYERGAAERHGGIVKGDEIMAINGKIVTDYTLAEAEAALQKAWNQGGDWIDLVVAVCPPKEYDDELTFF
B2: mCherry-ANKS4B (ankyrin repeat and sterile a motif domain containing 4B) (natural protein)
chain: MSTRYHQAASDSYLELLKEATKRDLNLSDEDGMTPTLLAAYHGNLEALEIICSRGGDPDRCDIWGNTPLHFAASNGHAHCVSFLVNFGANIFALDNDLQTPLDAAASREQNECVALLDKAATAQNIMNPKKVTRLKEQAQKNARRQIKECERLQEKHQNKMAHTYSKEESGTLSSSKGTFSRSSPSNASAPGTFGSLSKGIKDTFKIKFKKNKDTAEQVGKEGRSGQRNVMEVFREEEEDSFSGDFKEKLQLSAEEDGSVHHESILNRPGLGSIVFRRNRISSPEDISDSKREFGFKLPSELLQRQGASEADEGAADEEGEENGLKDDLPWDDDEVEWEEDVVDATPLEVFLLSQHLEEFLPIFKREQIDLEALLLCSDEDLQSIQMQLGPRKKVLNAINRRKQVLQQPGQLVDTSL

Molecular target: EGFP-MYO10-MYO7B chimeric myosin (Bos taurus (Bt) | human (Hs)) (UniProt P79114)
Assay: in-cell filopodial tip enrichment assay with a chimeric myosin

Sequence of UniProt P79114 (P79114 whole entry, change not shown): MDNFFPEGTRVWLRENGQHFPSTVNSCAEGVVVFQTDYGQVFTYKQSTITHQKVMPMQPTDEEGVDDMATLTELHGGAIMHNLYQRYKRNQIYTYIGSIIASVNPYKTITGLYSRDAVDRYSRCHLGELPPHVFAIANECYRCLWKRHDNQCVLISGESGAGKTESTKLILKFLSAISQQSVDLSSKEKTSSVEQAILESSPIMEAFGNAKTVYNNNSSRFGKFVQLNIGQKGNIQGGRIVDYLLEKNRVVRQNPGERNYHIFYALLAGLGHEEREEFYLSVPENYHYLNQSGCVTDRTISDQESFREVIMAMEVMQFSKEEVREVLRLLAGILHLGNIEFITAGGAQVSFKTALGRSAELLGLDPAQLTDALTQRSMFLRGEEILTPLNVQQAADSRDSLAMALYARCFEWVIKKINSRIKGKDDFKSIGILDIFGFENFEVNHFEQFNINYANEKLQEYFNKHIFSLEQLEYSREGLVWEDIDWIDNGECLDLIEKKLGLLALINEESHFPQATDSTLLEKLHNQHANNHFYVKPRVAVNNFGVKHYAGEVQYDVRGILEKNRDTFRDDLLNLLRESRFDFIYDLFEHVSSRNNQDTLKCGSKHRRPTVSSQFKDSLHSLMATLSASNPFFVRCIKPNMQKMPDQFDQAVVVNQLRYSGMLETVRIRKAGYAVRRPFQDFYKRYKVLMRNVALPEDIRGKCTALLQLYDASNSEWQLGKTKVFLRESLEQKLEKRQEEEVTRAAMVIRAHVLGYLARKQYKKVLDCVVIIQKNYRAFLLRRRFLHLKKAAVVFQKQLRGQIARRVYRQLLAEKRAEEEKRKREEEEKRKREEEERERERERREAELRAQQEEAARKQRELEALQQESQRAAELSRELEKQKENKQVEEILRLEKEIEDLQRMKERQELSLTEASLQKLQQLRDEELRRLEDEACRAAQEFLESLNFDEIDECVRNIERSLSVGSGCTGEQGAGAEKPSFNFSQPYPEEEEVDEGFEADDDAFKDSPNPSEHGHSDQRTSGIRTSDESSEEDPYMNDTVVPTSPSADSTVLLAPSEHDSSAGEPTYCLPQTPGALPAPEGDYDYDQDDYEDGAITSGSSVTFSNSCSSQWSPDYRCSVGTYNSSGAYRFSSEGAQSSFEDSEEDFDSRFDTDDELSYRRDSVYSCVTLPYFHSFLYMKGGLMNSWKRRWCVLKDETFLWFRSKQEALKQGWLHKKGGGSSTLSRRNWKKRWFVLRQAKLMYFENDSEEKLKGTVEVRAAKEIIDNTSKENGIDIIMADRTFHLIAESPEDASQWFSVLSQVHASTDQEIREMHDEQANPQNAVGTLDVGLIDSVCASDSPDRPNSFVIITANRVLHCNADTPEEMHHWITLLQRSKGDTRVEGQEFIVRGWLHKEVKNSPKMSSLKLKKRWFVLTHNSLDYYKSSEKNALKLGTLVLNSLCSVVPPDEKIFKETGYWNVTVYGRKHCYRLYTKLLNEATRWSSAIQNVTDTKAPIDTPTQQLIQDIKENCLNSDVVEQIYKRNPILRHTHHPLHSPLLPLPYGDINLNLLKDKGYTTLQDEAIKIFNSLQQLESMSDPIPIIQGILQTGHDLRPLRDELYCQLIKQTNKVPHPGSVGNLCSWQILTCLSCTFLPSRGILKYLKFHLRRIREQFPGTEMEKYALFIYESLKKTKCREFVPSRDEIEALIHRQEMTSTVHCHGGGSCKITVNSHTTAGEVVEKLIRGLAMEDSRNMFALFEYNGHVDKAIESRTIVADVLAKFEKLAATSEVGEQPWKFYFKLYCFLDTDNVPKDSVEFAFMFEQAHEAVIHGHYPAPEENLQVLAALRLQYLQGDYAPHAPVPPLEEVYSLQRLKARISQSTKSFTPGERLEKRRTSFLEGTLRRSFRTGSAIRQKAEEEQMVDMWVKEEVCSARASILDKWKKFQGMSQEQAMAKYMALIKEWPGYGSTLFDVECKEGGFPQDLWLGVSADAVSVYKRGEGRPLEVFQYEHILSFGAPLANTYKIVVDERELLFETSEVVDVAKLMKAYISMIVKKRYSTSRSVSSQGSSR

Binder	fold enrichment at filopodial tips relative to MYO10MD
B1	3 fold
B2	3 fold
